Reference: article PMC9804225

Columns and labels:
[1] = biological target: synthetic GFP Nb_(1–123)‐linker‐PA (5), folded; experiment: BLI; Nbs immobilised by their C-terminal His-tag on Ni-NTA biosensor tips; untagged GFP as analyte at 1 nM to 100 nM
[2] = biological target: recombinantly expressed GFP Nb; experiment: as above

Kd [1]: 1.11 nM | Kd [2]: 1.12 nM
Substance: untagged GFP (from UniProt P42212 1-238) (natural protein)
